# Experimental data from paper PMC4752221, “Nuclear Export of Pre-Ribosomal Subunits Requires Dbp5, but Not as an RNA-Helicase as for mRNA Export” (PLoS ONE, 2016).
# T1: His-Mtr2+Mex67 heterodimer (S. cerevisiae, UniProt Q99257 1-599; P34232 1-184)
# T1 construct: Mex67 of S. cerevisiae, co-expressed with His-Mtr2; Mtr2 of S. cerevisiae, His-tagged; also called His-Mtr2 and Mex67; Mex67-Mtr2; source: E. coli BL21 DE3, co-expressed, purified (Ni-NTA agarose)
# T1 sequence (looked up) 1: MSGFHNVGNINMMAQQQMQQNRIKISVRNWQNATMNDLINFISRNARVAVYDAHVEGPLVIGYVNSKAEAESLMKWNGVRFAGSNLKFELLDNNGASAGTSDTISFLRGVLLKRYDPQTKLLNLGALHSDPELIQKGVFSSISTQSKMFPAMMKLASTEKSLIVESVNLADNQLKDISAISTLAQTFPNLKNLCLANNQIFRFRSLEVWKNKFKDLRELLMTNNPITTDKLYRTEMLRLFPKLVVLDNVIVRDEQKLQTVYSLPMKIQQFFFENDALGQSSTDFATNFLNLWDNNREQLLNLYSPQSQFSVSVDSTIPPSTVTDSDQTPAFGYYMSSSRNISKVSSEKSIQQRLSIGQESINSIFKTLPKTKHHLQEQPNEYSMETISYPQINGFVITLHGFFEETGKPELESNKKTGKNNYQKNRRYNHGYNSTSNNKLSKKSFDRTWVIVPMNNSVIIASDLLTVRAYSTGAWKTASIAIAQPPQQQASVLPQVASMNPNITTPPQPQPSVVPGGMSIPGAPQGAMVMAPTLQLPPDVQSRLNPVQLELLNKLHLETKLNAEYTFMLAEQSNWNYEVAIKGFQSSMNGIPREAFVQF
# T1 sequence (looked up) 2: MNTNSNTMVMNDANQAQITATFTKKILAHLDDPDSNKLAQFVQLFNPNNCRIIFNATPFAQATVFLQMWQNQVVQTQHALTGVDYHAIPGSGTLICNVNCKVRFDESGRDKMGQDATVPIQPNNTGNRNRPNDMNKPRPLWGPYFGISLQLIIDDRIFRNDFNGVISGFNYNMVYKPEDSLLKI
# B1: GST-Dbp5 (natural protein, S. cerevisiae, UniProt P20449 1-482, looked up)
# chain: MSDTKRDPADLLASLKIDNEKEDTSEVSTKETVKSQPEKTADSIKPAEKLVPKVEEKKTKQEDSNLISSEYEVKVKLADIQADPNSPLYSAKSFDELGLAPELLKGIYAMKFQKPSKIQERALPLLLHNPPRNMIAQSQSGTGKTAAFSLTMLTRVNPEDASPQAICLAPSRELARQTLEVVQEMGKFTKITSQLIVPDSFEKNKQINAQVIVGTPGTVLDLMRRKLMQLQKIKIFVLDEADNMLDQQGLGDQCIRVKRFLPKDTQLVLFSATFADAVRQYAKKIVPNANTLELQTNEVNVDAIKQLYMDCKNEADKFDVLTELYGLMTIGSSIIFVATKKTANVLYGKLKSEGHEVSILHGDLQTQERDRLIDDFREGRSKVLITTNVLARGIDIPTVSMVVNYDLPTLANGQADPATYIHRIGRTGRFGRKGVAISFVHDKNSFNILSAIQKYFGDIEMTRVPTDDWDEVEKIVKKVLKD
# notes: Dbp5 (Rat8) of S. cerevisiae, GST-tagged, DBP5 in a pGEX backbone; also called recombinant GST-tagged Dbp5; source: E. coli Rosetta 2, purified (GSTrap 4B Glutathione Sepharose)
# Target: T1, His-Mtr2+Mex67 heterodimer
# Assay: pull-down; 100 μg purified GST-Dbp5 (mixed with bacterial lysate) held on Glutathione Sepharose 4B beads, washed, then 28 μg purified His-Mtr2+Mex67 added, 1 h at 4°C; 20 mM HEPES pH7.5, 100 mM NaCl, 4 mM MgCl2, 10% Glycerol, 0.1% NP-40, 1 mM DTT; with or without 1 mM ATP and 0.2 mg/ml RNase A (binding increased by ATP, not influenced by RNase A); Western blot and Coomassie
# Details: both partners purified
binder,measurement,value
B1,binding result,binds
